For assay [1], the target named is EBV gH/gL heterodimer, recombinant ectodomain (Epstein Barr virus). Nature of the assay: BLI kinetics, pH 5.0, ligand CL59 Mab, analyte gH/gL; koff (1/s) x10^-3.
For assay [2] the target is unchanged. Put plainly: BLI kinetics, pH 7.4, ligand CL59 Mab, analyte gH/gL; KD M x10^-9.
For assay [3] the target is unchanged. Nature of the assay: BLI kinetics, pH 7.4, ligand CL59 Mab, analyte gH/gL; koff (1/s) x10^-3.
For assay [4] the target is unchanged. Nature of the assay: BLI kinetics, pH 7.4, ligand CL59 Mab, analyte gH/gL; KA M^-1 x10^7.
For assay [5] the target is unchanged. Nature of the assay: BLI kinetics, pH 5.0, ligand CL59 Mab, analyte gH/gL; KD M x10^-9.
The target is the same in assay [6]. Put plainly: BLI kinetics, pH 5.0, ligand CL59 Mab, analyte gH/gL; KA M^-1 x10^7.
Assay [7] shares this target. Put plainly: BLI kinetics, pH 7.4, ligand CL59 Mab, analyte gH/gL; kon (1/Ms) x10^5.
The target is the same in assay [8]. Put plainly: BLI kinetics, pH 5.0, ligand CL59 Mab, analyte gH/gL; kon (1/Ms) x10^5.
The target is the same in assay [9]. Nature of the assay: BLI kinetics, pH 7.4, ligand gH/gL, analyte gp42 T175A; KD M x10^-9.
Assay [10] has the same target.
Assay [11] has as its target gp350 on EBV virions (Epstein Barr virus) (UniProt P03200). Put plainly: cell-based or functional assay.
Assay [12] deals with EBV gH/gL heterodimer, recombinant ectodomain (Epstein Barr virus). Put plainly: BLI kinetics, pH 7.4, ligand gH/gL, analyte gp42; KD M x10^-9.
The target is the same in assay [13]. Put plainly: BLI kinetics, pH 7.4, ligand gH/gL, analyte gp42; KA M^-1 x10^7.
Assay [14] has the same target. Put plainly: BLI kinetics, pH 7.4, ligand gH/gL, analyte gp42; kon (1/Ms) x10^5.
Assay [15] has the same target. Put plainly: BLI kinetics, pH 7.4, ligand gH/gL, analyte gp42; koff (1/s) x10^-3.
Assay [16] has the same target. Nature of the assay: BLI kinetics, pH 7.4, ligand CL40 Mab, analyte gH/gL; koff (1/s) x10^-3.
For assay [17] the target is unchanged. Put plainly: BLI kinetics, pH 5.0, ligand CL40 Mab, analyte gH/gL; koff (1/s) x10^-3.
Assay [18] has the same target. Nature of the assay: BLI kinetics, pH 7.4, ligand CL40 Mab, analyte gH/gL; KD M x10^-9.
In assay [19] the target is gH/gL on EBV virions (Epstein Barr virus) (UniProt P03231). Put plainly: cell-based or functional assay.
For assay [20], the target named is EBV gH/gL heterodimer, recombinant ectodomain (Epstein Barr virus). Nature of the assay: BLI kinetics, pH 7.4, ligand CL40 Mab, analyte gH/gL; kon (1/Ms) x10^5.
Assay [21] shares this target. Put plainly: BLI kinetics, pH 5.0, ligand CL40 Mab, analyte gH/gL; KA M^-1 x10^7.
For assay [22] the target is unchanged. Nature of the assay: BLI kinetics, pH 7.4, ligand CL40 Mab, analyte gH/gL; KA M^-1 x10^7.
Assay [23] shares this target. Put plainly: BLI kinetics, pH 5.0, ligand CL40 Mab, analyte gH/gL; kon (1/Ms) x10^5.
Assay [24] shares this target. Nature of the assay: BLI kinetics, pH 5.0, ligand CL40 Mab, analyte gH/gL; KD M x10^-9.

Read-outs that look alike come from different tables or passages of the source.

Regarding CL59 (antibody), the koff stood at 0.00186 s⁻¹ in assay [1] and 0.0028 s⁻¹ in assay [3]. The results for the Kd in assay [2] and in assay [5] were 6.39 nM and 5.52 nM, respectively. In addition, the Ka is 1.57e+08 M⁻¹ in [4] and 1.81e+08 M⁻¹ in [6]. Further, the on-rate (kon) came out at 438000 M⁻¹ s⁻¹ in [7] and 337000 M⁻¹ s⁻¹ in assay [8].
gp42 T175A, recombinant ectodomain: the equilibrium dissociation constant (Kd) in [9] was 2.06 nM. Moreover, in assay [10], the Ka turned out to be 4.85e+08 M⁻¹, the koff worked out at 0.000299 s⁻¹ and the kon worked out at 145000 M⁻¹ s⁻¹.
In assay [11], 72A1 (antibody) showed a neutralization of B95.8/F EBV infection of B (Raji) cells, IC50 of 0.08 µg/mL.
Take EBV gp42, recombinant ectodomain: the Kd in assay [12] came to 1.28 nM. The Ka in [13] turned out to be 7.84e+08 M⁻¹. Besides, in [14], the kon came to 224000 M⁻¹ s⁻¹. Besides, the koff in assay [15] was 0.000286 s⁻¹.
For CL40 (antibody), the koff was 0.00318 s⁻¹ in assay [16] and 0.00356 s⁻¹ in assay [17]. For the same substance, the Kd is 6.77 nM in [18] and 5.99 nM in assay [24]. The substance further registered a concentration reducing B cell (Raji) infection to 50% in [19] of 14.6 µg/mL. The substance further displayed a fold decrease in fold potency against AMMO1, B cell (Raji) infection in [19] of 100 fold. The kon in assay [20] worked out at 469000 M⁻¹ s⁻¹; in assay [23], 594000 M⁻¹ s⁻¹. Besides, the Ka turned out to be 1.67e+08 M⁻¹ in assay [21] and 1.48e+08 M⁻¹ in assay [22].

The values above are taken from patent US20200164059A1.
